Biological target: Mannose 6-phosphate receptor (M6P receptor) on human MPS IIIB fibroblasts (human)
Assay: cell-based or functional assay

- cellular uptake: NaGlu activity in MPS IIIB fibroblasts treated with 0.3 µg/mL rhNaGlu for 24 hours, against wild-type fibroblasts: ~50 % of wild-type activity
- cellular uptake: NaGlu activity in MPS IIIB fibroblasts treated with 1 µg/mL rhNaGlu for 24 hours, against wild-type fibroblasts: ~4 fold of wild-type activity
- cellular uptake: NaGlu activity in MPS IIIB fibroblasts treated with 30 µg/mL rhNaGlu for 24 hours, against wild-type fibroblasts: ≥ 40 fold of wild-type activity
B1: recombinant human N-acetyl-alpha-D-glucosaminidase (rhNaGlu) produced from a transgenic avian (Gallus) (enzyme)
chain: DEAREAAAVRALVARLLGPGPAADFSVSVERALAAKPGLDTYSLGGGGAARVRVRGSTGVAAAAGLHRYLRDFCGCHVAWSGSQLRLPRPLPAVPGELTEATPNRYRYYQNVCTQSYSFVWWDWARWEREIDWMALNGINLALAWSGQEAIWQRVYLALGLTQAEINEFFTGPAFLAWGRMGNLHTWDGPLPPSWHIKQLYLQHRVLDQMRSFGMTPVLPAFAGHVPEAVTRVFPQVNVTKMGSWGHFNCSYSCSFLLAPEDPIFPIIGSLFLRELIKEFGTDHIYGADTFNEMQPPSSEPSYLAAATTAVYEAMTAVDTEAVWLLQGWLFQHQPQFWGPAQIRAVLGAVPRGRLLVLDLFAESQPVYTRTASFQGQPFIWCMLHNFGGNHGLFGALEAVNGGPEAARLFPNSTMVGTGMAPEGISQNEVVYSLMAELGWRKDPVPDLAAWVTSFAARRYGVSHPDAGAAWRLLLRSVYNCSGEACRGHNRSPLVRRPSLQMNTSIWYNRSDVFEAWRLLLTSAPSLATSPAFRYDLLDLTRQAVQELVSLYYEEARSAYLSKELASLLRAGGVLAYELLPALDEVLASDSRFLLGSWLEQARAAAVSEAEADFYEQNSRYQLTLWGPEGNILDYANKQLAGLVANYYTPRWRLFLEALVDSVAQGIPFQQHQFDKNVFQLEQAFVLSKQRYPSQPRGDTVDLAKKIFLKYYPRWVAGSW
modifications: glycosylated; glycans carry mannose-6-phosphate (3.2 moles of M6P per mole of protein), sites not stated
